Measured values from the supplement of paper PMC10126150.
± gives the standard deviation of the averaged measurements.
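Note: ATP exposure 15 min at 22 °C before imaging.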

The sequences below were run on ATP (assay: switch fluorescence ratio, 500 uM ATP over buffer (Cy3 cluster intensity, sum of 5 cycles each) (fold (ratio)); higher = stronger signal-on switching upon ATP binding; sequences stand for … in TCGTCGGCAGCGTCAGATGTGTATAAGAGACAGTTTTTTTTTTTTTTTTTTTTTTTTT…TC). Conditions: aptamer strand: ATP DNA aptamer (quencher-CACCTGGGGGAGTATTGCGGAGGAAGG + anchor), 100 nM annealed; ATP concentration: 500 uM.
Outline: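 Five buffer/ATP imaging cycles were run on Cy3-labelled switching-strand clusters on a modified Illumina MiSeq flow-cell, with NaOH stripping and re-annealing between cycles. In each cycle, clusters annealed to 100 nM quencher-labelled ATP aptamer were imaged in selection buffer, then after 15 min with 500 uM ATP at 22 °C. Per cluster, the fluorescence ratio is summed target-cycle over summed buffer-cycle Cy3 intensity, averaged per switch-domain sequence. Only clusters within 100-1000 RFU were kept.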
In the case of CTGGGCAGAG, the switch fluorescence ratio is reported as 1.02 ± 0.043.
AATATTGTT gave a switch fluorescence ratio of 0.996 ± 0.01.
GGCAACCATA gave a switch fluorescence ratio of 1.02 ± 0.032.
For AGTTATTGCC, the switch fluorescence ratio was 1.01 ± 0.029.
Work on TGACCGCCGT yielded a switch fluorescence ratio of 1.06 ± 0.035.
Sequence TGGTCCCGGA has a switch fluorescence ratio of 1 ± 0.017.
For AGGGGAAAAT, the switch fluorescence ratio was 0.996 ± 0.028.
In the case of GCGGCTGAAA, the switch fluorescence ratio is reported as 1 ± 0.022.
TTTCTGTGGA showed a switch fluorescence ratio of 0.9892 ± 0.0091.
AGATATTTGG was tested, and the switch fluorescence ratio was 0.994 ± 0.018.
TCCTATTGTG was tested, and the switch fluorescence ratio was 1.03 ± 0.042.
For GAGATTGCGT, the switch fluorescence ratio was 1.01 ± 0.028.
In the case of GGCCTGGTTT, the switch fluorescence ratio is reported as 1.03 ± 0.057.
Work on GTTGATTTTA yielded a switch fluorescence ratio of 0.972 ± 0.014.
Work on GAGCGAGGGG yielded a switch fluorescence ratio of 0.9836 ± 0.0074.
With GATGGTTCGC the switch fluorescence ratio was 0.976 ± 0.015.
AGGTGTGGCT was tested, and the switch fluorescence ratio was 1 ± 0.048.
GAATTCCGTA was tested, and the switch fluorescence ratio was 1.03 ± 0.042.
In the case of GGTTTAAGAT, the switch fluorescence ratio is reported as 1.0263 ± 0.00079.
In the case of TTATCACACT, the switch fluorescence ratio is reported as 1.02 ± 0.043.
Work on TGAGGTAACG yielded a switch fluorescence ratio of 0.992 ± 0.029.
In the case of GATTTTCGTC, the switch fluorescence ratio is reported as 0.996 ± 0.032.
In the case of AGGGTATGGT, the switch fluorescence ratio is reported as 1.01 ± 0.023.
In the case of GGGGTAAAGG, the switch fluorescence ratio is reported as 1.04 ± 0.11.
TAAAAAGCAT gave a switch fluorescence ratio of 1.007 ± 0.0031.
For ACATAGGGGT, the switch fluorescence ratio was 1.01 ± 0.013.
AGGTCTAAGG showed a switch fluorescence ratio of 1 ± 0.022.
Work on ACGGGCCTTG yielded a switch fluorescence ratio of 0.987 ± 0.0063.
Sequence CTCATCGTTC has a switch fluorescence ratio of 0.99555 ± 0.00034.
For AATGTGGCGC, the switch fluorescence ratio was 0.9643 ± 0.0043.
TTTTTGTAAT showed a switch fluorescence ratio of 1.04 ± 0.055.
With GGTAAGATCG the switch fluorescence ratio was 0.9785 ± 0.0077.
GGGTGTTAGA gave a switch fluorescence ratio of 1 ± 0.014.
Sequence TTGGGCGCGG has a switch fluorescence ratio of 1 ± 0.031.
In the case of TGTATTGTGG, the switch fluorescence ratio is reported as 0.987 ± 0.021.
Work on ACGCGCCGGG yielded a switch fluorescence ratio of 1.063 ± 0.0039.
With CACGGGGGGT the switch fluorescence ratio was 1.02 ± 0.052.
TTACAAGAGG gave a switch fluorescence ratio of 0.989 ± 0.024.
Work on TCTAGGGTGC yielded a switch fluorescence ratio of 1.13 ± 0.042.
Work on ACGAGAGGGT yielded a switch fluorescence ratio of 0.973 ± 0.023.
In the case of TACGTGTTTT, the switch fluorescence ratio is reported as 1 ± 0.0081.
TTTTTACGAA gave a switch fluorescence ratio of 1.01 ± 0.022.
GGGGGAAGAT showed a switch fluorescence ratio of 1.01 ± 0.074.
Work on ACAGGGGTAT yielded a switch fluorescence ratio of 1.02 ± 0.066.
In the case of TATACATGAG, the switch fluorescence ratio is reported as 1.03 ± 0.021.
With TAATAATTAA the switch fluorescence ratio was 0.992 ± 0.024.
GGGGACGAAA gave a switch fluorescence ratio of 0.997 ± 0.013.
GGGTACCTAC showed a switch fluorescence ratio of 1.06 ± 0.042.
Work on GTTGGATCCG yielded a switch fluorescence ratio of 0.984 ± 0.017.
In the case of GGTCATGGGG, the switch fluorescence ratio is reported as 0.978 ± 0.023.
CATCTCTAGC gave a switch fluorescence ratio of 0.993 ± 0.012.
In the case of CTGTGCTAAT, the switch fluorescence ratio is reported as 1.1 ± 0.037.
For GCGTGCCTCG, the switch fluorescence ratio was 1.02 ± 0.036.
For CCAGATTTGT, the switch fluorescence ratio was 1.01 ± 0.016.
TTTGTATATT was tested, and the switch fluorescence ratio was 1.01 ± 0.053.
TCGGGTTAGT gave a switch fluorescence ratio of 1.005 ± 0.0081.
Sequence GAAGAGTCGT has a switch fluorescence ratio of 0.992 ± 0.064.
With TAGCTTGTTG the switch fluorescence ratio was 1.02 ± 0.025.
Work on GGTAGCAAGT yielded a switch fluorescence ratio of 1.05 ± 0.034.
GGGGTGTTCA showed a switch fluorescence ratio of 0.999 ± 0.047.
Work on TCCCGCTTGT yielded a switch fluorescence ratio of 1.17 ± 0.028.
For TCCGCGGGTT, the switch fluorescence ratio was 1.14 ± 0.2.
In the case of GGGGTGCACG, the switch fluorescence ratio is reported as 0.988 ± 0.051.
CTCGGTTCTT gave a switch fluorescence ratio of 0.975 ± 0.019.
TTTCGTCCTT showed a switch fluorescence ratio of 1.18 ± 0.014.
With CATCTTAGTG the switch fluorescence ratio was 1.02 ± 0.057.
TGTGTGAAAA was tested, and the switch fluorescence ratio was 1 ± 0.032.
GCCGGGGGGA gave a switch fluorescence ratio of 1.03 ± 0.086.
GCAGAGTGTT was tested, and the switch fluorescence ratio was 1.02 ± 0.027.
With AACCCTTTCA the switch fluorescence ratio was 1.06 ± 0.035.
Work on GGGTGGACGG yielded a switch fluorescence ratio of 0.993 ± 0.06.
GAACTACAGG gave a switch fluorescence ratio of 0.987 ± 0.041.
TTGGGATGAG was tested, and the switch fluorescence ratio was 1 ± 0.019.
AAGGAATGCA showed a switch fluorescence ratio of 0.993 ± 0.022.
Work on AATGGTAATA yielded a switch fluorescence ratio of 0.986 ± 0.025.
TCGGGTGCGA showed a switch fluorescence ratio of 1.04 ± 0.011.
Work on CTGAGTAGTT yielded a switch fluorescence ratio of 1.01 ± 0.018.
GTGGATAAGA was tested, and the switch fluorescence ratio was 1.0003 ± 1.9e-06.
For AAATGGGGAC, the switch fluorescence ratio was 0.9777 ± 0.0029.
Sequence TTGTCTTTGG has a switch fluorescence ratio of 1.01 ± 0.041.
GAGTAAGTGC was tested, and the switch fluorescence ratio was 0.972 ± 0.053.
For CCAGGCTTGT, the switch fluorescence ratio was 1.01 ± 0.018.
With TGCAAGGGGG the switch fluorescence ratio was 1.06 ± 0.077.
Sequence TTGGTATAGC has a switch fluorescence ratio of 1.003 ± 0.01.
CAGGACTGCA gave a switch fluorescence ratio of 1.028 ± 0.0039.
AGTATTTTTA gave a switch fluorescence ratio of 1.01 ± 0.012.
GATTTAGACG was tested, and the switch fluorescence ratio was 0.945 ± 0.06.
Work on TTTTTTTACC yielded a switch fluorescence ratio of 1.01 ± 0.021.
GCCGGTCGGG gave a switch fluorescence ratio of 0.985 ± 0.013.
AGTGAGGGTA was tested, and the switch fluorescence ratio was 0.983 ± 0.031.
Sequence AACGAGTGAC has a switch fluorescence ratio of 1.04 ± 0.019.
CGTTTCTTTG showed a switch fluorescence ratio of 0.966 ± 0.019.
Work on GCGTCTGCGC yielded a switch fluorescence ratio of 0.943 ± 0.085.
In the case of AGCTTCGTTC, the switch fluorescence ratio is reported as 1.014 ± 0.0052.
For TTTATACGTT, the switch fluorescence ratio was 1.01 ± 0.044.
TCTAAGTCTT showed a switch fluorescence ratio of 0.98 ± 0.042.
Work on CGTAATGTCT yielded a switch fluorescence ratio of 1.06 ± 0.031.
In the case of GGCTTGGTGT, the switch fluorescence ratio is reported as 1 ± 0.013.
Sequence GGACGTTGGT has a switch fluorescence ratio of 1.02 ± 0.022.
TTGTTAATGA was tested, and the switch fluorescence ratio was 0.979 ± 0.046.
TTACGGAAGT was tested, and the switch fluorescence ratio was 1.11 ± 0.13.
Sequence CGTCGCAGAA has a switch fluorescence ratio of 1.093 ± 0.004.
For TAGTGGGGGG, the switch fluorescence ratio was 0.989 ± 0.026.
Work on AGAAAAAACG yielded a switch fluorescence ratio of 1.05 ± 0.092.
TTATGTGGGC showed a switch fluorescence ratio of 0.97 ± 0.022.
TTTCTATTTT showed a switch fluorescence ratio of 1.02 ± 0.066.
TGTGATGCTG gave a switch fluorescence ratio of 1.02 ± 0.044.
TGGCATTTCC gave a switch fluorescence ratio of 1.18 ± 0.11.
With TGATGCGGGT the switch fluorescence ratio was 0.98723 ± 6.3e-05.
In the case of CATAGATCTG, the switch fluorescence ratio is reported as 1.01 ± 0.028.
Sequence GAGACATGTT has a switch fluorescence ratio of 0.99 ± 0.065.
Sequence GGGACTTGGA has a switch fluorescence ratio of 0.9765 ± 0.009.
Work on TTGCCATCCT yielded a switch fluorescence ratio of 0.98 ± 0.042.
TTGGTTTGCT was tested, and the switch fluorescence ratio was 1.005 ± 0.0045.
TTCTTTTTTT gave a switch fluorescence ratio of 1.01 ± 0.032.
For AAGGTTACCG, the switch fluorescence ratio was 1.04 ± 0.021.
Work on GTGGGGCGCG yielded a switch fluorescence ratio of 1.02 ± 0.038.
In the case of ATTAGTGATA, the switch fluorescence ratio is reported as 0.9756 ± 0.0025.
TTGCGTGCTT showed a switch fluorescence ratio of 1.01 ± 0.027.
AGGTGGGTTT showed a switch fluorescence ratio of 0.988 ± 0.044.
CCGGGAGTAC gave a switch fluorescence ratio of 2.14 ± 0.55.
CTATATAAAT showed a switch fluorescence ratio of 0.997 ± 0.059.
TTCTGCGGGG showed a switch fluorescence ratio of 1.04 ± 0.046.
TCGCTAATTG was tested, and the switch fluorescence ratio was 1.04 ± 0.022.
With TCGTTACAGG the switch fluorescence ratio was 1.045 ± 0.0051.
Sequence ATGTTGGGTA has a switch fluorescence ratio of 0.982 ± 0.019.
With AGTTGCTGCT the switch fluorescence ratio was 0.995 ± 0.02.
In the case of TATCCAGGGG, the switch fluorescence ratio is reported as 2.063 ± 0.0021.
Sequence TTAAATTGAT has a switch fluorescence ratio of 0.987 ± 0.04.
CGGGGCAGCG showed a switch fluorescence ratio of 1.02 ± 0.042.
Sequence CTAGGATTGA has a switch fluorescence ratio of 0.992 ± 0.041.
CCATAACGGG was tested, and the switch fluorescence ratio was 0.97548 ± 0.0008.
In the case of ATGATTATGA, the switch fluorescence ratio is reported as 1.04 ± 0.029.
CTGTTTTTTT was tested, and the switch fluorescence ratio was 0.981 ± 0.039.
With GATTGAGCGG the switch fluorescence ratio was 1.01 ± 0.018.
Sequence AAAAATGCTT has a switch fluorescence ratio of 1.02 ± 0.066.
CAGTACTGGT was tested, and the switch fluorescence ratio was 0.99384 ± 0.00024.
ATGCTACCTT showed a switch fluorescence ratio of 1.1 ± 0.048.
For CCCTTTTTTG, the switch fluorescence ratio was 1.02 ± 0.05.
With TAGAGGGGAA the switch fluorescence ratio was 1.024 ± 0.0034.
TTTAAAGGTT was tested, and the switch fluorescence ratio was 1.02 ± 0.054.
Work on TGCTGGCATA yielded a switch fluorescence ratio of 1.18 ± 0.29.
Sequence TTTAGAACGA has a switch fluorescence ratio of 1.01 ± 0.025.
Sequence ATTGCGCCCG has a switch fluorescence ratio of 1.032 ± 0.0088.
AAATGGTATC gave a switch fluorescence ratio of 1.01 ± 0.028.
Sequence TGATGAAATT has a switch fluorescence ratio of 1.02 ± 0.036.
Sequence TGAGAGTGGG has a switch fluorescence ratio of 1.01 ± 0.021.
In the case of ATCAGGGCAA, the switch fluorescence ratio is reported as 1.26 ± 0.18.
With GGGGCTAAGA the switch fluorescence ratio was 0.993 ± 0.015.
CAGTATCCTT was tested, and the switch fluorescence ratio was 1.027 ± 0.003.
GACGGACAGG was tested, and the switch fluorescence ratio was 1.06 ± 0.024.
For TCTGCTTGGG, the switch fluorescence ratio was 1.09 ± 0.13.
For CGGAGTATAT, the switch fluorescence ratio was 1.87 ± 0.11.
TATTACTATT showed a switch fluorescence ratio of 0.999 ± 0.023.
In the case of CGAGGTTCTG, the switch fluorescence ratio is reported as 0.97 ± 0.039.
For GAATGTCGGG, the switch fluorescence ratio was 0.97965 ± 8.2e-05.
For ATAAGCATTA, the switch fluorescence ratio was 1.05 ± 0.11.
